Data from article PMC9482650, “Quantitative fragmentomics allow affinity mapping of interactomes” (Nature Communications, 2022).

T1: TJP3_3, O95049
T1 sequence (O95049 375-456, limits assumed, looked up): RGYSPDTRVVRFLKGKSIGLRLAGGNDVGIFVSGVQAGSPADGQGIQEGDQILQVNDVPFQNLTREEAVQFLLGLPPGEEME

T2: SNTA1, Q13424
T2 sequence (Q13424 82-180, limits assumed, looked up): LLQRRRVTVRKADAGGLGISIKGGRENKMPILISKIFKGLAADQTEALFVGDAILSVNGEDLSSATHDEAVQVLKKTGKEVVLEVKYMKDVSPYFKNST

T3: DVL3, Q92997
T3 sequence (Q92997 244-331, limits assumed, looked up): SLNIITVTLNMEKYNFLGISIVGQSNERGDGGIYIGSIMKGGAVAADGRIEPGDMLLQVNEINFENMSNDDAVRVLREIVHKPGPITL

T4: LIN7C, Q9NUP9
T4 sequence (Q9NUP9 88-185, limits assumed, looked up): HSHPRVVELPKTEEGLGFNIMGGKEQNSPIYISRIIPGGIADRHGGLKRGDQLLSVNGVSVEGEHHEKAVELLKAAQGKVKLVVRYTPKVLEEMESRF

T5: APBA3_1, O96018
T5 sequence (O96018 389-490, limits assumed, looked up): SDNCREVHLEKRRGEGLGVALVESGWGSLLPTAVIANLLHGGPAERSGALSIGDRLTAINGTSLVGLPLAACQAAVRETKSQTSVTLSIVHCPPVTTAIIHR

T6: SNTG2, Q9NY99
T6 sequence (Q9NY99 68-166, limits assumed, looked up): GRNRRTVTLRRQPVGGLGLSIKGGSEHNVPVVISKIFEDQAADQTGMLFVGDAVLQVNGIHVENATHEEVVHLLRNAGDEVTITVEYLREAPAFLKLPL

T7: HTRA3, P83110
T7 sequence (P83110 354-453, limits assumed, looked up): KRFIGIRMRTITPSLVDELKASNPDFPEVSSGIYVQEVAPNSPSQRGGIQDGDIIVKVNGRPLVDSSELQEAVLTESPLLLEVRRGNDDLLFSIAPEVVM

T8: RHPN1, Q8TCX5
T8 sequence (Q8TCX5 508-602, limits assumed, looked up): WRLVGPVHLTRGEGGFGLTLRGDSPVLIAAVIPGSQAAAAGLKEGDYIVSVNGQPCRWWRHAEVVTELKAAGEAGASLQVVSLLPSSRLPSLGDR

T9: FRMPD1, Q5SYB0
T9 sequence (Q5SYB0 52-145, limits assumed, looked up): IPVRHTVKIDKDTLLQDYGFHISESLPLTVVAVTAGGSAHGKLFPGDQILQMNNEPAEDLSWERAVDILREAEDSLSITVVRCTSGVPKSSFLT

T10: PDZD7_3, Q9H5P4
T10 sequence (Q9H5P4 857-944, limits assumed, looked up): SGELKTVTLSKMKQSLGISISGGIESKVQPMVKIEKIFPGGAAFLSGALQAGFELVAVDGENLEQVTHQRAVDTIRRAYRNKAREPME

T11: TX1BP3, O14907
T11 sequence (O14907 10-122, limits assumed, looked up): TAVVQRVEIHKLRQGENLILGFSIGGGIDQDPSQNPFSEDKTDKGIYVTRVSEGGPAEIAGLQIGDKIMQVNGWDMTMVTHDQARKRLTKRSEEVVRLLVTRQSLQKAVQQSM

T12: PTPN13_1, Q12923
T12 sequence (Q12923 1088-1188, limits assumed, looked up): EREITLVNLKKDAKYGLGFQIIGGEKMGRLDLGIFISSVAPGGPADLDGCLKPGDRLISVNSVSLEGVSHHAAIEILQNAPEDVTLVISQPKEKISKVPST


molecular target: T1, TJP3_3, O95049; assay: holdup assay; design: key: below the threshold = too weak to quantify, mostly under pKd 3.1 to 4; details: plain residues with an end cap or a label only (N-terminal biotin on a linker: ado-ado)

pKd | Binder
below the threshold | DSATVRTYSC [PPFIA1, Q13136]
below the threshold | DQPLEKSTKL [AKAP10, O43572]

molecular target: GORASP1, Q9BQQ3; assay: holdup assay; design: key: below the threshold = too weak to quantify, mostly under pKd 3.1 to 4; details: plain residues with an end cap or a label only (N-terminal biotin on a linker: ado-ado)
Sequence (Q9BQQ3 1-208): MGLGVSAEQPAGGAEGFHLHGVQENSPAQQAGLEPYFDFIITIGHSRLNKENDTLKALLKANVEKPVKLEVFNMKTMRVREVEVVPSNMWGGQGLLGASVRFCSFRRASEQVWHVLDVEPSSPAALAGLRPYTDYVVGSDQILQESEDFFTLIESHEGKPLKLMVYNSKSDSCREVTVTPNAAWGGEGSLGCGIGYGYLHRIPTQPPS

pKd | Binder
below the threshold | DSATVRTYSC [PPFIA1, Q13136]
below the threshold | DQPLEKSTKL [AKAP10, O43572]

molecular target: GRIP2_3, Q9C0E4; assay: holdup assay; design: key: below the threshold = too weak to quantify, mostly under pKd 3.1 to 4; details: plain residues with an end cap or a label only (N-terminal biotin on a linker: ado-ado)
Sequence (Q9C0E4 238-339): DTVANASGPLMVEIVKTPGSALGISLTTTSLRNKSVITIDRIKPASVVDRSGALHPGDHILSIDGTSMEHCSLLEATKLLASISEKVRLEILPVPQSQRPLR

pKd | Binder
below the threshold | DSATVRTYSC [PPFIA1, Q13136]
below the threshold | DQPLEKSTKL [AKAP10, O43572]

molecular target: FRMPD3, Q5JV73; assay: holdup assay; design: key: below the threshold = too weak to quantify, mostly under pKd 3.1 to 4; details: plain residues with an end cap or a label only (N-terminal biotin on a linker: ado-ado)
Sequence (Q5JV73 12-100): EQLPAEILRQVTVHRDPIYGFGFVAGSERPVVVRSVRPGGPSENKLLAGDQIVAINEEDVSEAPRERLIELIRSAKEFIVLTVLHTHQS

pKd | Binder
below the threshold | DSATVRTYSC [PPFIA1, Q13136]
below the threshold | DQPLEKSTKL [AKAP10, O43572]

molecular target: T2, SNTA1, Q13424; assay: holdup assay; design: key: below the threshold = too weak to quantify, mostly under pKd 3.1 to 4; details: plain residues with an end cap or a label only (N-terminal biotin on a linker: ado-ado)

pKd | Binder
below the threshold | DSATVRTYSC [PPFIA1, Q13136]
3.71 | DQPLEKSTKL [AKAP10, O43572]

molecular target: Inadl_4, Q8NI35; assay: holdup assay; design: key: below the threshold = too weak to quantify, mostly under pKd 3.1 to 4; details: plain residues with an end cap or a label only (N-terminal biotin on a linker: ado-ado)
Sequence (Q8NI35 547-651): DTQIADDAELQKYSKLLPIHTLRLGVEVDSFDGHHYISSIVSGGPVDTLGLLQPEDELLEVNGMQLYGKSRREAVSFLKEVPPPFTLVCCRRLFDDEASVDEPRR

pKd | Binder
below the threshold | DSATVRTYSC [PPFIA1, Q13136]
below the threshold | DQPLEKSTKL [AKAP10, O43572]

molecular target: MAST1, Q9Y2H9; assay: holdup assay; design: key: below the threshold = too weak to quantify, mostly under pKd 3.1 to 4; details: plain residues with an end cap or a label only (N-terminal biotin on a linker: ado-ado)
Sequence (Q9Y2H9 962-1065): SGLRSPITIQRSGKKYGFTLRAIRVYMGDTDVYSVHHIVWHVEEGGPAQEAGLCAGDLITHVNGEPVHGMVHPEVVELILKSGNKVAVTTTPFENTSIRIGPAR

pKd | Binder
below the threshold | DSATVRTYSC [PPFIA1, Q13136]
4.55 | DQPLEKSTKL [AKAP10, O43572]

molecular target: T3, DVL3, Q92997; assay: holdup assay; design: key: below the threshold = too weak to quantify, mostly under pKd 3.1 to 4; details: plain residues with an end cap or a label only (N-terminal biotin on a linker: ado-ado)

pKd | Binder
below the threshold | DSATVRTYSC [PPFIA1, Q13136]
below the threshold | DQPLEKSTKL [AKAP10, O43572]

molecular target: T4, LIN7C, Q9NUP9; assay: holdup assay; design: key: below the threshold = too weak to quantify, mostly under pKd 3.1 to 4; details: plain residues with an end cap or a label only (N-terminal biotin on a linker: ado-ado)

pKd | Binder
below the threshold | DSATVRTYSC [PPFIA1, Q13136]
below the threshold | DQPLEKSTKL [AKAP10, O43572]

molecular target: T5, APBA3_1, O96018; assay: holdup assay; design: key: below the threshold = too weak to quantify, mostly under pKd 3.1 to 4; details: plain residues with an end cap or a label only (N-terminal biotin on a linker: ado-ado)

pKd | Binder
below the threshold | DSATVRTYSC [PPFIA1, Q13136]
below the threshold | DQPLEKSTKL [AKAP10, O43572]

molecular target: T6, SNTG2, Q9NY99; assay: holdup assay; design: key: below the threshold = too weak to quantify, mostly under pKd 3.1 to 4; details: plain residues with an end cap or a label only (N-terminal biotin on a linker: ado-ado)

pKd | Binder
below the threshold | DSATVRTYSC [PPFIA1, Q13136]
3.64 | DQPLEKSTKL [AKAP10, O43572]

molecular target: ARHGEF12, Q9NZN5-2; assay: holdup assay; design: key: below the threshold = too weak to quantify, mostly under pKd 3.1 to 4; details: plain residues with an end cap or a label only (N-terminal biotin on a linker: ado-ado)
Sequence (Q9NZN5 other isoform, or with tags, fused parts or gaps): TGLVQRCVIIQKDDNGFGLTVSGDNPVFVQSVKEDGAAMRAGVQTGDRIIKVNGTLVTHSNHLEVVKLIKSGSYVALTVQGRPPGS

pKd | Binder
below the threshold | DSATVRTYSC [PPFIA1, Q13136]
4.97 | DQPLEKSTKL [AKAP10, O43572]

molecular target: FRMPD2_2, Q68DX3; assay: holdup assay; design: key: below the threshold = too weak to quantify, mostly under pKd 3.1 to 4; details: plain residues with an end cap or a label only (N-terminal biotin on a linker: ado-ado)
Sequence (Q68DX3 944-1038): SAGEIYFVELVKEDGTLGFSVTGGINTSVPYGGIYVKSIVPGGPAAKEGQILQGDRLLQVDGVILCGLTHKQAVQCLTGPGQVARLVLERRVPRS

pKd | Binder
below the threshold | DSATVRTYSC [PPFIA1, Q13136]
below the threshold | DQPLEKSTKL [AKAP10, O43572]

molecular target: Inadl_5, Q8NI35; assay: holdup assay; design: key: below the threshold = too weak to quantify, mostly under pKd 3.1 to 4; details: plain residues with an end cap or a label only (N-terminal biotin on a linker: ado-ado)
Sequence (Q8NI35 673-780): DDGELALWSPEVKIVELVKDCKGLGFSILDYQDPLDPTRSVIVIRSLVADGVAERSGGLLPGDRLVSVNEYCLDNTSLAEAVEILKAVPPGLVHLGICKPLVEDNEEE

pKd | Binder
below the threshold | DSATVRTYSC [PPFIA1, Q13136]
below the threshold | DQPLEKSTKL [AKAP10, O43572]

molecular target: T7, HTRA3, P83110; assay: holdup assay; design: key: below the threshold = too weak to quantify, mostly under pKd 3.1 to 4; details: plain residues with an end cap or a label only (N-terminal biotin on a linker: ado-ado)

pKd | Binder
4.65 | DSATVRTYSC [PPFIA1, Q13136]
below the threshold | DQPLEKSTKL [AKAP10, O43572]

molecular target: PTPN3, P26045; assay: holdup assay; design: key: below the threshold = too weak to quantify, mostly under pKd 3.1 to 4; details: plain residues with an end cap or a label only (N-terminal biotin on a linker: ado-ado)
Sequence (P26045 505-587): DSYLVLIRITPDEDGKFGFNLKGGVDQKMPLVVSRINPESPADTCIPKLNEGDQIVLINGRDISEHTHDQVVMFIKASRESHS

pKd | Binder
3.68 | DSATVRTYSC [PPFIA1, Q13136]
4.62 | DQPLEKSTKL [AKAP10, O43572]

molecular target: FRMPD2_1, Q68DX3; assay: holdup assay; design: key: below the threshold = too weak to quantify, mostly under pKd 3.1 to 4; details: plain residues with an end cap or a label only (N-terminal biotin on a linker: ado-ado)
Sequence (Q68DX3 770-861): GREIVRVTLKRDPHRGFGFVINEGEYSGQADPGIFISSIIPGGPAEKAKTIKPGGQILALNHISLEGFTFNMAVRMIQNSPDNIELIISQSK

pKd | Binder
4.49 | DSATVRTYSC [PPFIA1, Q13136]
below the threshold | DQPLEKSTKL [AKAP10, O43572]

molecular target: T8, RHPN1, Q8TCX5; assay: holdup assay; design: key: below the threshold = too weak to quantify, mostly under pKd 3.1 to 4; details: plain residues with an end cap or a label only (N-terminal biotin on a linker: ado-ado)

pKd | Binder
below the threshold | DSATVRTYSC [PPFIA1, Q13136]
3.96 | DQPLEKSTKL [AKAP10, O43572]

molecular target: DLG2_3, Q15700; assay: holdup assay; design: key: below the threshold = too weak to quantify, mostly under pKd 3.1 to 4; details: plain residues with an end cap or a label only (N-terminal biotin on a linker: ado-ado)

pKd | Binder
3.73 | DSATVRTYSC [PPFIA1, Q13136]
3.83 | DQPLEKSTKL [AKAP10, O43572]

molecular target: MAGI2_4, Q86UL8; assay: holdup assay; design: key: below the threshold = too weak to quantify, mostly under pKd 3.1 to 4; details: plain residues with an end cap or a label only (N-terminal biotin on a linker: ado-ado)
Sequence (Q86UL8 772-865): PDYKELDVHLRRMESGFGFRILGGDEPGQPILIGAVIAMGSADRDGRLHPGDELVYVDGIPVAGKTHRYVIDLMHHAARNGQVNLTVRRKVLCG

pKd | Binder
below the threshold | DSATVRTYSC [PPFIA1, Q13136]
below the threshold | DQPLEKSTKL [AKAP10, O43572]

molecular target: T9, FRMPD1, Q5SYB0; assay: holdup assay; design: key: below the threshold = too weak to quantify, mostly under pKd 3.1 to 4; details: plain residues with an end cap or a label only (N-terminal biotin on a linker: ado-ado)

pKd | Binder
below the threshold | DSATVRTYSC [PPFIA1, Q13136]
below the threshold | DQPLEKSTKL [AKAP10, O43572]

molecular target: PDZRN4_1, Q6ZMN7; assay: holdup assay; design: key: below the threshold = too weak to quantify, mostly under pKd 3.1 to 4; details: plain residues with an end cap or a label only (N-terminal biotin on a linker: ado-ado)
Sequence (Q6ZMN7 213-318): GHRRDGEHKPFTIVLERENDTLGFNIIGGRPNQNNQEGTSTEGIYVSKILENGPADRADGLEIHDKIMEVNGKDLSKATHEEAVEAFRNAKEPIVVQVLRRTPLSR

pKd | Binder
below the threshold | DSATVRTYSC [PPFIA1, Q13136]
3.92 | DQPLEKSTKL [AKAP10, O43572]

molecular target: T10, PDZD7_3, Q9H5P4; assay: holdup assay; design: key: below the threshold = too weak to quantify, mostly under pKd 3.1 to 4; details: plain residues with an end cap or a label only (N-terminal biotin on a linker: ado-ado)

pKd | Binder
below the threshold | DSATVRTYSC [PPFIA1, Q13136]
4.54 | DQPLEKSTKL [AKAP10, O43572]

molecular target: T11, TX1BP3, O14907; assay: holdup assay; design: key: below the threshold = too weak to quantify, mostly under pKd 3.1 to 4; details: plain residues with an end cap or a label only (N-terminal biotin on a linker: ado-ado)

pKd | Binder
below the threshold | DSATVRTYSC [PPFIA1, Q13136]
below the threshold | DQPLEKSTKL [AKAP10, O43572]

molecular target: T12, PTPN13_1, Q12923; assay: holdup assay; design: key: below the threshold = too weak to quantify, mostly under pKd 3.1 to 4; details: plain residues with an end cap or a label only (N-terminal biotin on a linker: ado-ado)

pKd | Binder
below the threshold | DSATVRTYSC [PPFIA1, Q13136]
below the threshold | DQPLEKSTKL [AKAP10, O43572]
